B1: SCT-Fa181 (antibody, V domains shown)
VH: QVQLQQSGAELVRPGTSVKVSCKASGYAFTNYLIEWVKQRPGQGLEWIGVINPGSGATNYNEKFKGKATLTADKSSSTAYMQLRSLASEDSAVYFCARRTTVVAPYAMDYWGQGTSVTVSS
VL: DIQMTQTTSSLSASLGDRVTISCRASQDISNYLNWYQQKPDGTVELLIYYTSRLHSGVPSRFSGSGSGTDYSLTISNLEQEDIATYFCQQGNTLPRTFGGGTKLEIK
notes: murine IgG
B2: SCT-Fa182 (antibody, V domains shown)
VH: QVQLQQSGAELVRPGTSVKVSCKASGYAFTNYLIEWVKQRPGQGLEWIGVISPGSGATTYNEKFKGKATLTADRSSTTAYMQLSSLTSEDSAVYFCARSAYGSPLDFWGQGTTLTVSS
VL: DIKMTQSPSSMYASLGERVTITCKASQDINRYLSWFQQKPGKSPKTLIYRVNRLVDGVPLRFSGSGSGQDYSLTISSLDYEDMGIYYCQQYDEFPYTFGGGTKLEIK
notes: murine IgG
B3: SCT-Fa184 (antibody, V domains shown)
VH: QVQLQQSGAELVRPGTSVKVSCKASGYAFTNYLIEWVKQRPGQGLEWIGVISPGSGGTTYNEKFKGKATLTADKSSSTAYMQFSSLTSEDSAVYFCARSAYGHVFDYWGQGTTLTVSS
VL: DIKMTQSPSSIYASLGERVTITCKASQDINSYLKWFQQKPGKSPKTLIYRANRLVDGVPSRFSGSGSGQDYSLTISSLEYEDMGIYYCLQYDEFPYTFGGGTKLEIK
notes: murine IgG
B4: SCT-Fa183 (antibody, V domains shown)
VH: QVQLQQSGAELVRPGTSVKVSCKASGYAFTNYLIEWVKQRPGQGLEWIGVISPGSGATTYNEKFKGKATLTADRSSTTAYMQLSSLTSEDSAVYFCARSAYGSPLDFWGQGTTLTVSS
VL: DILLTQSPDILSVSPGERVSFSCRASQNIGTSIHWYQQRTNGSPRLLIKYASESISGISSRFSGSGSGTDFTLSINSVESEDIADYYCQQSNNWPFTFGSGTKLEIK
notes: murine IgG
B5: SCT-Fa185 (antibody, V domains shown)
VH: QVQLQQSGAELVRPGTSVRVSCTASGYAFTNYLIEWVKQRPGQGLEWIGVISPGSGGTTYNEKFKGKATLTADKSSSTAYMQFSSLTSEDSAVYFCARSAYGHVFDYWGQGTTLTVSS
VL: DIKMTQSPSSMYASLGERVTITCKASQDINSYLKWFQQKPGKSPKTLIYRANRLVDGVPSRFSGSGSGQDYSLTISSLEYEDMGIYYCLQYDEFPYTFGGGTKLEIK
notes: murine IgG
B6: SCT-Fa002 (antibody, V domains shown)
VH: EFQLQQSGPELVKPGASVKISCKASGYSFTDYNMNWVKQSNGKSLEWIGVNNPKYGTTTYNQKFKGKATLTVDQSSSTAYMQLNSLTSEDSAVYYCARRGYYYGSSYGYFDVWGTGTTVTVSS
VL: DILMTQSPSSMSVSLGDRVSIICHASQDIRSNIGWLQQKPGKSLKGLIYHGTNLEDGVPSRFSGSGSGADYSLTISSLESEDFADYYCVQYVQFPRTFGGGTKLEIK
notes: murine IgG
B7: SCT-Fa195 (antibody, V domains shown)
VH: QVQLRQSGAELVRPGTSVKLSCKASGYTLTDYYINWVKQRPGQGLEWIARIYPGNGNTYYNEKFKGKATLTAEKSSSTVNMQVSSLTSEDSAVYFCARGGSSDRIYYYAMDYWGQGTSVTVSS
VL: DIQVTQSSPFLSVSLGGRVIISCKASDHINNWLAWYQQKPGNAPRLLISGAINLETGVPSRFSGSGSGKDYTLSISSLQTEDVATYYCQQYWNTPYTFGGGTKLEIK
notes: murine IgG
B8: SCT-Fa008 (antibody, V domains shown)
VH: EVKLVESEGGLVQLGSSMKLSCTASGFTFSDYYMAWVRQVPEKGLEWIANINFDGSGTYYLDSLKSRFIISRDNGKNILYLQMSGLKSEDTATYYCARLYDGYYAYWGQGTTLTVSS
VL: DVVVTQTPLSLPVSLGDQASISCRSSQSLVHSNGNTYLYWYLQKPGQSPKLLIYKVSNRFSGVPDRFSGSGSGTDFTLKISRVEAEDLGVYFCSQSTHVPLTFGAGTKLELK
notes: murine IgG
B9: SCT-Fa003 (antibody, V domains shown)
VH: EGKLEESGGGLVQPGGSMKLSCAASGFTFSDAWMDWVRQSPKKGLEWVAEIRNKANKHSKHYAESVKGRFTISRDDSKSSVYLQMNSLRAEDTGIYYCSYDYIFAYWGQGTLVTVSA
VL: DVVMTQTPLSLPVSLGDQASISCRSSQSLVHSNGNTYLHWYLQKPGQSPKLLIYKVSNRFSGVPDRFSGSGSGTDFTLKISRVEAEDLGVYFCSQSTHVPWTFGGGTKLEIK
notes: murine IgG
B10: SCT-Fa018 (antibody, V domains shown)
VH: EVKLVESEGGLVQPGSSMKLSCTASGFTFSDYYMAWVRQVPEKGLEWVANINFDGSSSYYLDSLKSRFIISRDNTKNILYLQMSSLKSEDTATYYCARLYDGYYAYWGQGTTLTVSS
VL: DVVMTQTPLSLPVSLGDQASISCRSSQSLIHSNGNTYLYWYLQKPGQSPTLLIYKVSNRFSGVPDRFSGSGSGTDFTLKISRVEAEDLGVYFCSQSTHVPLTFGAGSKLELK
notes: murine IgG
B11: SCT-Fa022 (antibody, V domains shown)
VH: EVQLQQPGAELVKPGASVKLSCKASGYTFTSYWIHWVKQRPGRGLEWIGRIDPNSGGTKYNEKFKSKATLTVDKPSSTAYMQLSSLTSEDSAVYYCTKDGNTPYYAMDYWGQGTSVTVSS
VL: SIVMTQTPKFLLVSAGDRVTITCKASQSVSNAVAWYQQKPGQSPKLLIYYASNRYTGVPDRFTGSGYGTDFTFTISTVQAEDLAVYFCQQDYSSPLTFGAGTKLELK
notes: murine IgG
B12: SCT-Fa020 (antibody, V domains shown)
VH: EVQLHQSGPELVKPGASVKMSCKASGYTFTDYNMHWVKQSHGKSLEWIGYINPNNGGIIYNQNFKGKATLTVNKSSTTAYMELRSLTSEDSAVYYCVGSLDYWGQGTTLTVSS
VL: DIQMTQTTSSLSASLGDRVTISCRASQDINNYLNWYQQKPDETVKLLIYYTSRLHSGVPSRFSGSGSGTDYSLTISNLDQEDFATYFCQQGYMLPLTFDAGTKLELK
notes: murine IgG
B13: SCT-Fa023 (antibody, V domains shown)
VH: EVQLQQSGAELVKPGASVKLSCTASDFNIKDYYLHWVKQRTEQGLEWIGRIDPDDGETKYGPKFQGKATITADTSSNTAFLQLSSLTSEDTAVYFCSRSNPYYFDYWGQGTTLTVSS
VL: DIQMNQSPSSLSASLGDTITITCHVSQNINVWLSWYQQKPGNIPKLLIYKASNLHTGVTSRFSGSGAGTGFTLTISSLQPEDIATYYCQQGQNYPYTFGGGTKLEIK
notes: murine IgG
B14: SCT-Fa031 (antibody, V domains shown)
VH: EVQLQQSGAELVKPGASVKLSCTASGFNIKDYYMHWVKQRTEQGLEWIGRIDPEDGETKYVPKFQGKATITADTSSNTAFLHLTSLTSEDTAVYYCARSNPYYFDYWGQGTTLTVSS
VL: DIQMNQSPSSLSASLGDTVTITCHASQTINVWLSWYQQKPGNIPKLLIYKASNLHTGVPSRFSGSGSGTGFTLTISSLQPEDIATYYCQQGQNYPYTFGGGTKLEIK
notes: murine IgG
B15: SCT-Fa026 (antibody, V domains shown)
VH: EVQLQQSGAELVKPGASVKLSCTASGFNIKDFYMHWVHQRTEKGLEWIGRIDPEDGKTKYAPKFQGKATITADTSSNTAYLQLSSLTSEDTAVYYCARSNPYFFDYWGQGTTLTVSS
VL: DIQMNQSPSSLSASLGDTITITCHASQTINVWLSWYQQKPGNIPKLLIYKASNLHTGVPSRFSGSGSGTGFTLNISSLQPEDIATYYCHQGQSYPYTFGGGTKLEIK
notes: murine IgG
B16: SCT-Fa028 (antibody, V domains shown)
VH: EVQLQQSGAELVKPGASVKLSCTASGFNIKDYYMHWVKQRTDHGLEWIGRIDPDNGETKYAPKFQGKATITADTSSNTAYLQLGSLTSEDTAVYYCARSSPYYFDYWGQGTTLTVSS
VL: DIQMNQSPSSLSASLGDTITITCHASQNINVWLSWYQQKPGNIPKLLIYKASNLHTGVPSRFSGSGSVTGFTLTISSLQPEDIATYYCQQGQNFPYTFGGGTKLEIK
notes: murine IgG
B17: SCT-Fa027 (antibody, V domains shown)
VH: EVQLQQSGAELVKPGASVKLSCTASGFNIKDYYIHWVKQRTDQGLEWIGRIDPDNGETKYAPKFQGKATITADTSSNTAYLQLGSLTSEDTAVYYCARSSPYYFDYWGQGTTLTVSS
VL: DIQMNQSPSSLSASLGDTITITCHASQNINVWLSWYQQKPGNIPKLLIYKASNLHTGVPSRFSGSGSVTGFTLTISSLQPEDIATYYCQQGQNFPYTFGGGTKLEII
notes: murine IgG
B18: SCT-Fa038 (antibody, V domains shown)
VH: EVQLQQSGAELVKPGASVKLSCTVSGFNIKDYYMHWVKQRTEQGLEWIGRIDPENDKIKYAPKFQGKATITADTSSNTVYLQLSSLTSEDTAVYYCARSNPYFFDYWGQGTTLTVSS
VL: DIQMNQSPSSLSASLGDTITITCHASQTINVWLSWYQQKPGNIPKLLIYKASNLHTGVPSRFSGSGSGTGFTLNISSLQPEDIATYYCHQGQSYPYTFGGGTKLEIK
notes: murine IgG
B19: SCT-Fa030 (antibody, V domains shown)
VH: EVQLQQSGAELVKPGASVKLSCTASGFNIKDYYMHWVKQRTEQGLEWIGRIDPEDGETKYAPKFQGKATITADTSSNTASLQLSSLTSEDTAVYYCARSNPYFFDYWGQGTPLTVSS
VL: DIQMNQSPSSLSASLGDTITITCHASQTINVWLSWYQQKPGNIPKLLIYKASKMHTGVPSRFSGSGSGTGFTLNISSLQPEDIATYYCHQGQSYPYTFGGGTKLEIK
notes: murine IgG
B20: SCT-Fa186 (antibody, V domains shown)
VH: QVQLQQSGPELARPGASVKLSCKASGYTFRSNGISWVKQRTGQGLEWIGEIYPRSGNIYYNEKVKDKATLTADKSSNTAYMAVRSLTSEDSAVYFCARSTTVVAGGFDFWGQGTVLTVSS
VL: DIVMTQSPSSLTVTAGEKVTMSCKSSQSLLNSRTQKNSLTWYQQKPGQPPKLLIYWASTRESGVPDRFTGSGSGTDFTLTISSVQAEDLAIYYCQNDYTYPWTFGGGTELEIK
notes: murine IgG
B21: SCT-Fa193 (antibody, V domains shown)
VH: QVQLRQSGAELARPGASVKLSCKASGYTFTSYGITWVKQRTGQGLEWIGEIYPRSGNIYYNEKFKGKVTLTADKSSSTAYMELRSLTSEDSAVYFCARSTAVVAGGFDYWGQGTTLTVSS
VL: DVVMTQSPSSLTVTTGERVTVNCKSSQSLLNSRIQKNSLTWYQQKPGQPPKLLIYWASTRESGVPDRFTGSGSGTDFTLTISSVQAEDLAIYYCQNDYNYPWTFGGGTKLEIK
notes: murine IgG
B22: SCT-Fa192 (antibody, V domains shown)
VH: QVQLRQSGAELARPGASVKLSCKASGYTFTNYGITWVKQRTGQGLEWIGEIYPRSGNIYYNEKFKGKVTLTADKSSSTAYMELRSLTSEDSAVYFCARSTAVVAGGFDYWGQGTTLTVSS
VL: DIVMTQSPSSLTVTTGEKVTVNCKSSQSLLNSRIQKNSLTWYQQKPGQPPKLLIFWASTRESGVPDRFTGSESGTDFTLTISSVQAEDLAIYYCQNDYNYPWTFGGGTKLEIK
notes: murine IgG

Each binder was assayed against T1, Human TIM-3 Human Fc tagged protein (human, fluorescently labeled with HiLyte Fluor 555 (sites not given)) (assay: capture slide probed with labeled TIM-3-Fc;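 also: IgG from single CD138-enriched plasma cells, isolated from lymphocytes, immobilized on a derivatized glass slide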).
T1 construct: Bought construct; also called TIM-3 protein tagged with human Fc; ACROBiosystems catalog no: TM3-H5258

Binding result, binds:
B1
B2
B3
B4
B5
B6
B7
B8
B9
B10
B11
B12
B13
B14
B15
B16
B17
B18
B19
B20
B21
B22

— patent publication US20230279105A1 (SINGLE CELL TECHNOLOGY, published 2023)
